Measured values as given in patent US20260008817A1, “CYCLIC PEPTIDE OR SALT THEREOF, AND USES THEREOF” (FUJIFILM Corporation, priority 2023, published 2026).
Positions of bridges follow the written chain, without caps; N, C: chain ends. No end group written: not given here. COCH2 = acetyl group that carries the bridge

Biological target: T1, Recombinant Human FGFR1 alpha (IIIc) Fc Chimera Protein (Homo sapiens, UniProt P11362)
T1 construct: purchased R&D systems 658-FR-050
Test: ELISA binding affinity of enzymatically synthesized peptide to FGFR
Conditions: ELISA luminescence signal at 10 nmol/L peptide, SEQ ID NO: 239 standardized to 1; enzyme synthesis product
Description: The binding affinity of the peptide to FGFR was evaluated using an ELISA method.
The peptide used for the evaluation was enzymatically synthesized by the following method.
First, a fusion peptide (SEQ ID NO: 25) in which a translation enhancing sequence (SEQ ID NO: 22), a peptide, a Myc tag (SEQ ID NO: 23), and a HiBiT tag (SEQ ID NO: 24) were linked in this order was designed. Next, a template DNA sequence (SEQ ID NO: 26) was designed in which a T7 promoter sequence, a Shine-Dalgarno sequence, a sequence necessary for transcription and translation initiation, such as a start codon (ATG), was provided on the 5′ terminal side of the DNA sequence encoding the fused peptide, and a stop codon group was provided on the 3′ terminal side thereof. In a case where the triplet TAG codon is included in the template DNA sequence, the above-described codon is assigned to the codon of chloroacetylated lysine, and thus, the peptide encoded by the above-described DNA sequence is a cyclic peptide in which a thiol group of cysteine and a chloroacetyl group of chloroacetylated lysine spontaneously form a thioether bond.
The cell-free enzymatic synthesis of the polypeptide was performed in a translation solution containing a template DNA, PUREfrex 2.0 (GeneFrontier, PF201-0.25-5), and Aminoacyl tRNA (1). 1.75 μL ([…]) of the template DNA prepared to 50 ng/μL, 2.5 μL of PUREfrex 2.0 Solution I, 0.25 μL of Solution II, 0.5 μL of Solution III, and a dried product of Aminoacyl tRNA (1) (final concentration: 0.5 ng/μL) were mixed and mixture was subjected to a reaction at 37° C. for 1 hour.
The concentration of the enzymatically synthesized peptide was measured using the peptide diluted with Can Get Signal Immunoreaction Enhancer Solution I (TOYOBO, NKB-101), Nano-Glo HiBiT Lytic Detection System (Promega, N3040), and a chemical synthetic peptide for a calibration curve having a known concentration (SEQ ID NO: 33) according to the standard protocol of the Nano-Glo HiBiT Lytic Detection System.
The binding affinity of the enzymatically synthesized peptide to FGFR was measured by evaluating the amount of the peptide bound to FGFR by ELISA.
First, 5 ng of Recombinant Human FGFR1 alpha (IIIc) Fc Chimera Protein (R&D systems, 658-FR-050) was immobilized in each well of a 96-well plate, and blocked with Pierce Protein-Free (PBS) Blocking Buffer (Thermo, 37572), and a peptide diluted with Can Get Signal Immunoreaction Enhancer Solution I (TOYOBO, NKB-101) was then added and reacted at room temperature for 3 hours. After washing with 0.05% Tween 20-containing phosphate buffered saline (PBS), an anti-Myc antibody (Cell Signaling, 14038S) diluted with Can Get Signal Immunoreaction Enhancer Solution II (TOYOBO, NKB-101) was added and reacted at room temperature for 2 hours. After washing with 0.05% Tween 20-containing PBS, SuperSignal ELISA Femto Substrate (Thermo, 37075) was added, and the luminescence amount was measured. The dose-response relationship was calculated from using the difference between the luminescence amount in the well in which FGFR was immobilized and the luminescence amount in the well in which FGFR was not immobilized, and the concentration of the peptide at the time of reaction, and the binding affinity to FGFR was evaluated according to the following evaluation criteria. The evaluation result preferably satisfies the evaluation criteria A, B, or C.
In a case where a value of a luminescence signal emitted by the cyclic peptide set forth in SEQ ID NO: 239 at a reaction concentration of 10 nmol/L is standardized to 1, evaluation criteria of the luminescence signal value emitted by the peptide at a reaction concentration of 10 nmol/L is as follows. • A: 0.7 or more • B: 0.5 or more and less than 0.7 • C: 0.1 or more and less than 0.5 • D: less than 0.1.

T1 sequence (P11362 with tags, fused parts or gaps limits assumed): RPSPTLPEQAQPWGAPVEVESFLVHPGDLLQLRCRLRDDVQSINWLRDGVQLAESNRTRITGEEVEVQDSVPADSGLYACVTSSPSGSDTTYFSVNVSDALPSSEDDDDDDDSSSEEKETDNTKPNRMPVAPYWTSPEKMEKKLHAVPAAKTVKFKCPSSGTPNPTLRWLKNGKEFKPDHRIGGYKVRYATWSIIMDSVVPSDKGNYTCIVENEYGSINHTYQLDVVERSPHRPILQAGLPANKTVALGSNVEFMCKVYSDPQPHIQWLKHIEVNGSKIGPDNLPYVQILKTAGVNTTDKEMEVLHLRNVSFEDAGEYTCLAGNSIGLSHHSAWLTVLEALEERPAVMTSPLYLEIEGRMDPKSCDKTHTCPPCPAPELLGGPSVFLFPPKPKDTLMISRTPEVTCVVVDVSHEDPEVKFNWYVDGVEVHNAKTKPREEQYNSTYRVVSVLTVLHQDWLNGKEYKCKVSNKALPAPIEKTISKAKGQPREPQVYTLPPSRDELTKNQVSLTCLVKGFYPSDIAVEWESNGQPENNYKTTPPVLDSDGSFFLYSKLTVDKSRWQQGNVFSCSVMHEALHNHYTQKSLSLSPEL

| Substance | Evaluation result of binding affinity to FGFR |
| --- | --- |
| 125 (ICVYTFDAHSHSLHAALTKI; Description of Artificial Sequence: Cyclic peptide) [compound 125] | C (0.1 or more and less than 0.5) |
| 78 (ICVYTSDAHAHSLHAALTK(COCH2)I; thioether 2-19 (inferred)) [compound 78] | C (0.1 or more and less than 0.5) |
| 42 (LCVYTFDAHAHSLHAALTK(COCH2)I; thioether 2-19 (inferred)) [compound 42] | A (0.7 or more) |
| 87 (ICVYTFNAHAHSLHAALTK(COCH2)I; thioether 2-19 (inferred)) [compound 87] | A (0.7 or more) |
| 52 (ECVYTFDAHAHSLHAALTK(COCH2)I; thioether 2-19 (inferred)) [compound 52] | A (0.7 or more) |
| 138 (ICVYTFDAHAYSLHAALTKI; Description of Artificial Sequence: Cyclic peptide) [compound 138] | C (0.1 or more and less than 0.5) |
| 134 (ICVYTFDAHALSLHAALTKI; Description of Artificial Sequence: Cyclic peptide) [compound 134] | A (0.7 or more) |
| 129 (ICVYTFDAHRHSLHAALTKI; Description of Artificial Sequence: Cyclic peptide) [compound 129] | C (0.1 or more and less than 0.5) |
| 69 (ICVYQFDAHAHSLHAALTK(COCH2)I; thioether 2-19 (inferred)) [compound 69] | B (0.5 or more and less than 0.7) |
| 99 (ICVYTFDTHAHSLHAALTK(COCH2)I; thioether 2-19 (inferred)) [compound 99] | C (0.1 or more and less than 0.5) |
| 111 (ICVYTFDANAHSLHAALTKI; Description of Artificial Sequence: Cyclic peptide) [compound 111] | A (0.7 or more) |
| 137 (ICVYTFDAHAFSLHAALTKI; Description of Artificial Sequence: Cyclic peptide) [compound 137] | C (0.1 or more and less than 0.5) |
| 119 (ICVYTFDAHIHSLHAALTKI; Description of Artificial Sequence: Cyclic peptide) [compound 119] | C (0.1 or more and less than 0.5) |
| 106 (ICVYTFDAIAHSLHAALTKI; Description of Artificial Sequence: Cyclic peptide) [compound 106] | C (0.1 or more and less than 0.5) |
| 124 (ICVYTFDAHQHSLHAALTKI; Description of Artificial Sequence: Cyclic peptide) [compound 124] | B (0.5 or more and less than 0.7) |
| 103 (ICVYTFDAAAHSLHAALTKI; Description of Artificial Sequence: Cyclic peptide) [compound 103] | A (0.7 or more) |
| 54 (HCVYTFDAHAHSLHAALTK(COCH2)I; thioether 2-19 (inferred)) [compound 54] | A (0.7 or more) |

Results, then the substance that gave them:

| Evaluation result of binding affinity to FGFR | Substance |
| --- | --- |
| A (0.7 or more) | 227 (ICVYTFDAHAHSLHAALTK(COCH2)V; thioether 2-19 (inferred)) [compound 227] |
| C (0.1 or more and less than 0.5) | 261 (LCYINLFTHTKV; Description of Artificial Sequence: Cyclic peptide) [compound 261] |
| A (0.7 or more) | 296 (ICVYTFDAHAHSLDAALNKQ; not fully specified (residue 19, bridges)) [compound 296] |
| A (0.7 or more) | 190 (ICVYTFDAHAHSLEAALTK(COCH2)I; thioether 2-19 (inferred)) [compound 190] |
| A (0.7 or more) | 155 (ICVYTFDAHAHNLHAALTK(COCH2)I; thioether 2-19 (inferred)) [compound 155] |
| A (0.7 or more) | 320 (FCVYTFDAHAHSLHDALNK(COCH2)Q; thioether 2-19 (inferred)) [compound 320] |
| C (0.1 or more and less than 0.5) | 222 (ICVYTFDAHAHSLHAALEK(COCH2)I; thioether 2-19 (inferred)) [compound 222] |
| C (0.1 or more and less than 0.5) | 279 (QCLQKVGYLLWQFGWSK(COCH2)I; thioether 2-17 (inferred)) [compound 279] |
| C (0.1 or more and less than 0.5) | 169 (ICVYTFDAHAHSWHAALTK(COCH2)I; thioether 2-19 (inferred)) [compound 169] |
| C (0.1 or more and less than 0.5) | 161 (ICVYTFDAHAHHLHAALTK(COCH2)I; thioether 2-19 (inferred)) [compound 161] |
| C (0.1 or more and less than 0.5) | 197 (ICVYTFDAHAHSLHYALTK(COCH2)I; thioether 2-19 (inferred)) [compound 197] |
| C (0.1 or more and less than 0.5) | 228 (ICVYTFDAHAHSLHAALTK(COCH2)F; thioether 2-19 (inferred)) [compound 228] |
| C (0.1 or more and less than 0.5) | 281 (YCVYTFDAQDVWRPLRK(COCH2)V; thioether 2-17 (inferred)) [compound 281] |
| A (0.7 or more) | 300 (ICVYTFDAHAHSLHDALNK(COCH2)V; thioether 2-19 (inferred)) [compound 300] |
| B (0.5 or more and less than 0.7) | 283 (WCWLIPTPWPGVYQFSPK(COCH2)A; thioether 2-18 (inferred)) [compound 283] |
| C (0.1 or more and less than 0.5) | 272 (QCDWVIWQWDPPYIKV; Description of Artificial Sequence: Cyclic peptide) [compound 272] |
| A (0.7 or more) | 145 (ICVYTFDAHAESLHAALTK(COCH2)I; thioether 2-19 (inferred)) [compound 145] |
| A (0.7 or more) | 177 (ICVYTFDAHAHSLGAALTK(COCH2)I; thioether 2-19 (inferred)) [compound 177] |
| C (0.1 or more and less than 0.5) | 260 (ICREVIVGSLYTWDGNRGFFKV; Description of Artificial Sequence: Cyclic peptide) [compound 260] |
| C (0.1 or more and less than 0.5) | 287 (YCPFEVYSWWVPKWHK(COCH2)I; thioether 2-16 (inferred)) [compound 287] |
| A (0.7 or more) | 305 (ICVYTFDAHAHSLDDALNK(COCH2)V; thioether 2-19 (inferred)) [compound 305] |
| A (0.7 or more) | 317 (FCVYTFDAHAHSLHDALTK(COCH2)Q; thioether 2-19 (inferred)) [compound 317] |
| A (0.7 or more) | 200 (ICVYTFDAHAHSLHQALTK(COCH2)I; thioether 2-19 (inferred)) [compound 200] |
| A (0.7 or more) | 219 (ICVYTFDAHAHSLHAALNK(COCH2)I; thioether 2-19 (inferred)) [compound 219] |
